According to article PMC10869706, “Chp1 is a dedicated chaperone at the ribosome that safeguards eEF1A biogenesis” (Nature Communications, 2024):

Experiments:
V5-eEF1A F98C = molecular target: T1, V5-eEF1A F98C (yeast (S. cerevisiae), UniProt P02994 1-458, F98C); assay: co-IP; co-IP of V5-eEF1A variants with Chp1 from yeast lysate (GFP-Trap/V5-Trap; 20 mM Tris pH 7.4, 150 mM NaCl, 2 mM MgCl2, 2 mM EDTA, 5% glycerol, 0.25% NP-40), 2 h at 4 °C, immunoblot, quantified; details: partners not purified
T1 construct: eEF1A (Tef2), yeast, with a change that represents a human EEF1A2 polymorphism; source: expressed in yeast cells, in lysate; not shown: V5, N-terminal, kept
T1 sequence (looked up): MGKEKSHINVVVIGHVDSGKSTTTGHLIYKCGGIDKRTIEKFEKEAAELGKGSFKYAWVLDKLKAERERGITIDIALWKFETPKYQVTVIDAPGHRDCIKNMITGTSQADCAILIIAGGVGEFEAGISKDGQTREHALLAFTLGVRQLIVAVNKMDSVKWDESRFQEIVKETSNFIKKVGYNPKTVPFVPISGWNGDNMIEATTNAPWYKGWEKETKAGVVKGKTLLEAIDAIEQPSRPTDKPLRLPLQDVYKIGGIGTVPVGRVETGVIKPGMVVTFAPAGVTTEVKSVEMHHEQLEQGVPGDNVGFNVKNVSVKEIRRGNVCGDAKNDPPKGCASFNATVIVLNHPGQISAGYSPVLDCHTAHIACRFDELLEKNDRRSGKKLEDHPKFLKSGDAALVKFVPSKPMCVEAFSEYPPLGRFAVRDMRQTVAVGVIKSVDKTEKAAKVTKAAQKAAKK

V5-eEF1A M102V = molecular target: T2, V5-eEF1A M102V (yeast (S. cerevisiae), UniProt P02994 1-458, M102V); assay: as above; details: partners not purified
T2 construct: eEF1A (Tef2), yeast, with a change that represents a human EEF1A2 polymorphism; source: expressed in yeast cells, in lysate; not shown: V5, N-terminal, kept
T2 sequence (looked up): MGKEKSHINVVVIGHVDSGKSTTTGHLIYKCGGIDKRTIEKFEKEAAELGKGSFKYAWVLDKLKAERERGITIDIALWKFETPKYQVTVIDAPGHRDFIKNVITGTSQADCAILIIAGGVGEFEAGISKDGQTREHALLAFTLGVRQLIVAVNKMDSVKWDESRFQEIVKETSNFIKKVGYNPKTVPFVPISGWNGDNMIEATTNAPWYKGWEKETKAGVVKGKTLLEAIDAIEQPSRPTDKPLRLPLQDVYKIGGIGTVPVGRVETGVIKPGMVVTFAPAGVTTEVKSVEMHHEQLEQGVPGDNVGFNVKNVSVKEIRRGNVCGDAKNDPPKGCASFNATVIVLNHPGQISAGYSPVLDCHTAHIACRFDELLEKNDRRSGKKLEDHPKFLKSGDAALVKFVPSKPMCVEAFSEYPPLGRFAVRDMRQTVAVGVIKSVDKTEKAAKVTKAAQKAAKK

fold increase in Chp1 binding (against WT eEF1A) (V5-eEF1A F98C): 3 fold
fold increase in Chp1 binding (against WT eEF1A) (V5-eEF1A M102V): 3 fold
B1: Chp1 (in yeast cells expressing V5-eEF1A) (natural protein, yeast (S. cerevisiae), UniProt Q08971 1-146, looked up)
chain: MSTFNAETADNLEDIEKQFAVVAVEQAETYWKLLTSVPGSKLRLTKFDDEIYENFMERFPEYKDVERVKKFTEEELKTKEAKERWRKFFTIFEKKIEDYNFGTLLRTDASAEYGQFTTCFVVRLQFYAFEIARNKHGLNDWIVGQK
notes: Chp1 (ORF YPL225w), yeast; source: yeast cells, in lysate
